Data on one molecule can be found in patent publication US9395368B2, “Methods, agents and peptides for inducing an immune response to matrix metalloproteinase-2 expressing tumors” (New York University, priority 2010, dated 2016).

Test [1] has as its system CD40, CD80, CD83, CD86, HLA-DR and CCR7 on DCs. The test can be described thus: Expression of maturation markers by DCs. It counts as cell-based, human. The procedure: Antibodies. Allophycocyanin-conjugated antibody to CCR-7 (150503) was purchased from R&D Systems. Unconjugated (10 μg/mL for blocking experiments) or phycoerythrin-conjugated antibody to OX40L (11C3.1) was from Biolegend. Blocking antibody to IL-4 (8F12; 10 μg/mL) was from Acris. Antibodies to human Vβ chains covering 70% of the repertoire (10Test Beta Mark; Beckman Coulter) were used according to the manufacturer's instructions. Fluorescein isothiocyanate-conjugated antibody to IL-12p35/IL-12p70 (B-T21) and IFNAR1 (EP899Y) were from Abcam. Phycoerythrine-conjugated antibodies to IL-12p40/IL-12p70 (C8.6), IL-10 (B-T10), CD203c (FR3-16A11) were from Miltenyi Biotec. Blocking antibody to HLA-DQ (SPVL3; 20 μg/mL) was from NeoMarkers. […]
Dendritic cell preparation and activation. […] Immature DCs were harvested on day 5 and matured using poly(I:C) at 5 μg/mL/10^6 DCs (Amersham) Secretion of IL-12p70, TNFα, IL-1β, IL-6, IL-8 and IL-10 was assessed on both immature and mature DCs using the Human Inflammatory Cytokine Cytometric Bead Array (BD Pharmingen).
We next evaluated whether DCs could be involved in the polarization of MMP-2-specific CD4^+ T cells.

Test [2] deals with IL-12p35 and IL-12p40 in DCs. The test can be described thus: Intracellular staining of IL-12p35 and IL-12p40 chains in DCs. It counts as cell-based, human. The method, then:
Immature DCs were incubated with MMP-2 (0.5 μg/mL or 5 μg/mL) and poly(I:C)-matured 1 h later. IL-12 levels were measured 16 h later. (A) Results are represented as a percentage of IL-12p70 levels, measured by CBA, produced when DCs were incubated with poly(I:C) only (n=11). (B) For intracellular staining of IL-12p35 and IL-12p40 chains, Brefeldin A was added 4 h after poly(I:C) activation and cells were stained after an additional 12 h incubation. Numbers in the upper right quadrants are the percentages of each population for a representative donor (n=3). (C,D) Immature DCs were incubated with MMP-2 for 1 h (5 μg/mL) before poly(I:C) maturation. Intracellular staining of phosphorylated (Y701) STAT1 (P-STAT1) was performed 3 h later. A representative donor (C) and results for all 3 donors (D) are shown. […] (E) Immature DCs were incubated with MMP-2 and poly(I:C)-matured 1 h later. IFNβ levels were measured by ELISA 16 h later. Results are represented as a percentage of IFNβ levels produced when DCs were incubated with poly(I:C) only (n=9). (F,G) 10^6DCs/lane were treated with 0.1 μg MMP-2 or controls. Poly(I:C) was added 1 h later. IFNAR1 protein expression was detected the next day by Western blot analysis using a rabbit monoclonal antibody. A representative donor (F) and results for all 7 donors (G) are shown. (H) The rhIFNAR1 (5 μg; ≈110 kD) was incubated overnight with 0.3 μg MMP-2 before performing Western blot analysis for IFNAR1. The second band (around 90 kD) and the third band (25 kD) very likely correspond to either a degraded form of the protein still recognized by the antibody or a contaminant present in the commercial protein preparation and non-specifically recognized by the antibody. MMP-2 enzymatic activity was controlled (FIG. 13C-D). […]
Intracellular staining T-bet and GATA-3 expression was measured on resting T cells. […] Cytokine production by T cells was also assessed by intracellular staining T cells were stimulated with 2 μM overlapping peptides. […]

B1: active MMP-2: Purified human MMP-2 (mixture of the proenzyme (50%) and the active form (50%)) purchased from Biomol (protein, listed as Homo sapiens)
chain: MEALMARGALTGPLRALCLLGCLLSHAAAAPSPIIKFPGDVAPKTDKELAVQYLNTFYGCPKESCNLFVLKDTLKKMQKFFGLPQTGDLDQNTIETMRKPRCGNPDVANYNFFPRKPKWDKNQITYRIIGYTPDLDPETVDDAFARAFQVWSDVTPLRFSRIHDGEADIMINFGRWEHGDGYPFDGKDGLLAHAFAPGTGVGGDSHFDDDELWTLGEGQVVRVKYGNADGEYCKFPFLFNGKEYNSCTDTGRSDGFLWCSTTYNFEKDGKYGFCPHEALFTMGGNAEGQPCKFPFRFQGTSYDSCTTEGRTDGYRWCGTTEDYDRDKKYGFCPETAMSTVGGNSEGAPCVFPFTFLGNKYESCTSAGRSDGKMWCATTANYDDDRKWGFCPDQGYSLFLVAAHEFGHAMGLEHSQDPGALMAPIYTYTKNFRLSQDDIKGIQELYGASPDIDLGTGPTPTLGPVTPEICKQDIVFDGIAQIRGEIFFFKDRFIWRTVTPRDKPMGPLLVATFWPELPEKIDAVYEAPQEEKAVFFAGNEYWIYSASTLERGYPKPLTSLGLPPDVQRVDAAFNWSKNKKTYIFAGDKFWRYNEVKKKMDPGFPKLIADAWNAIPDNLDAVVDLQGGGHSYFFKGAYYLKLENQSLKSVKFGSIKSDWLGC
As for B1, the “expression levels of maturation markers CD40, CD80, CD83, CD86, HLA-DR and CCR7” value in test [1] is recorded as “not significantly affected”. In test [2], the IL-12p40 production entry is “not affected overall”. For the same molecule, the “IL-12p35 production, mean inhibition” value in test [2] (pre-exposure of DCs) is on record as 65%. Moreover, in test [2] (pre-incubated before poly(I:C) activation, poly(I:C) only 4.33%±0.94), the “DCs expressing the IL-12p35 subunit” value is 1.5%±0.22.
